The values below come from patent US20160244525A1.

Sequences and labels used below:
B1: 2B.1.74 (antibody, human IgG1, kappa, V domains shown)
VH: EVQLVESGGGLVQPGGSLRLSCAASGFTFTSTGISWVRQAPGKGLEWVGRYHPFRGSTNYADSVKGRFTISADTSKNTAYLQMNSLRAEDTAVYYCARTYGIYDLYVDYTEYVMDYWGQGTLVTVSS
VL: DIQMTQSPSSLSASVGDRVTITCRASQDVDTSLAWYKQKPGKAPKLLIYSASFLYSGVPSRFSGSGSGTDFTLTISSLQPEDFATYYCQQSTGHPQTFGQGTKVEIKR
B2: 2B.1.35 (antibody, human IgG1, kappa, V domains shown)
VH: EVQLVESGGGLVQPGGSLRLSCAASGFTFTSTGISWVRQAPGKGLEWVGRWHPFRGSTNYADSVKGRFTISADTSKNTAYLQMNSLRAEDTAVYYCARTYGIYDLYVDYTEYVMDYWGQGTLVTVSS
VL: DIQMTQSPSSLSASVGDRVTITCRASQDVDTSLAWYKQKPGKAPKLLIYSASFLYSGVPSRFSGSGSGTDFTLTISSLQPEDFATYYCQQSTGHPQTFGQGTKVEIKR
B3: 2B.1.71 (antibody, human IgG1, kappa, V domains shown)
VH: EVQLVESGGGLVQPGGSLRLSCAASGFTFTSTGISWVRQAPGKGLEWVGRVWMFDGSTNYADSVKGRFTISADTSKNTAYLQMNSLRAEDTAVYYCARTYGIYDLYVDYTEYVMDYWGQGTLVTVSS
VL: DIQMTQSPSSLSASVGDRVTITCRASQDVDTSLAWYKQKPGKAPKLLIYSASFLYSGVPSRFSGSGSGTDFTLTISSLQPEDFATYYCQQSTGHPQTFGQGTKVEIKR
B4: 2B.1.72 (antibody, human IgG1, kappa, V domains shown)
VH: EVQLVESGGGLVQPGGSLRLSCAASGFTFTSTGISWVRQAPGKGLEWVGRVHPFEGSTNYADSVKGRFTISADTSKNTAYLQMNSLRAEDTAVYYCARTYGIYDLYVDYTEYVMDYWGQGTLVTVSS
VL: DIQMTQSPSSLSASVGDRVTITCRASQDVDTSLAWYKQKPGKAPKLLIYSASFLYSGVPSRFSGSGSGTDFTLTISSLQPEDFATYYCQQSTGHPQTFGQGTKVEIKR
B5: 2B.1.33 (antibody, human IgG1, kappa, V domains shown)
VH: EVQLVESGGGLVQPGGSLRLSCAASGFTFTSTGISWVRQAPGKGLEWVGRYHPFHGSTNYADSVKGRFTISADTSKNTAYLQMNSLRAEDTAVYYCARTYGIYDLYVDYTEYVMDYWGQGTLVTVSS
VL: DIQMTQSPSSLSASVGDRVTITCRASQDVDTSLAWYKQKPGKAPKLLIYSASFLYSGVPSRFSGSGSGTDFTLTISSLQPEDFATYYCQQSTGHPQTFGQGTKVEIKR
B6: 2B.1.55 (antibody, human IgG1, kappa, V domains shown)
VH: EVQLVESGGGLVQPGGSLRLSCAASGFTFTSTGISWVRQAPGKGLEWVGRVDVFWGSTNYADSVKGRFTISADTSKNTAYLQMNSLRAEDTAVYYCARTYGIYDLYVDYTEYVMDYWGQGTLVTVSS
VL: DIQMTQSPSSLSASVGDRVTITCRASQDVDTSLAWYKQKPGKAPKLLIYSASFLYSGVPSRFSGSGSGTDFTLTISSLQPEDFATYYCQQSTGHPQTFGQGTKVEIKR
B7: 2B.1.93 (antibody, human IgG1, kappa, V domains shown)
VH: EVQLVESGGGLVQPGGSLRLSCAASGFTFTSTGISWVRQAPGKGLEWVGRIDNYWGSTNYADSVKGRFTISADTSKNTAYLQMNSLRAEDTAVYYCARTYGIYDLYVDYTEYVMDYWGQGTLVTVSS
VL: DIQMTQSPSSLSASVGDRVTITCRASQDVDTSLAWYKQKPGKAPKLLIYSASFLYSGVPSRFSGSGSGTDFTLTISSLQPEDFATYYCQQSTGHPQTFGQGTKVEIKR
B8: 2B.1.14 (antibody, human IgG1, kappa, V domains shown)
VH: EVQLVESGGGLVQPGGSLRLSCAASGFTFTSTGISWVRQAPGKGLEWVGRLWYFDGSTNYADSVKGRFTISADTSKNTAYLQMNSLRAEDTAVYYCARTYGIYDLYVDYTEYVMDYWGQGTLVTVSS
VL: DIQMTQSPSSLSASVGDRVTITCRASQDVDTSLAWYKQKPGKAPKLLIYSASFLYSGVPSRFSGSGSGTDFTLTISSLQPEDFATYYCQQSTGHPQTFGQGTKVEIKR
B9: 2B.1.82 (antibody, human IgG1, kappa, V domains shown)
VH: EVQLVESGGGLVQPGGSLRLSCAASGFTFTSTGISWVRQAPGKGLEWVGRINFFSGSTNYADSVKGRFTISADTSKNTAYLQMNSLRAEDTAVYYCARTYGIYDLYVDYTEYVMDYWGQGTLVTVSS
VL: DIQMTQSPSSLSASVGDRVTITCRASQDVDTSLAWYKQKPGKAPKLLIYSASFLYSGVPSRFSGSGSGTDFTLTISSLQPEDFATYYCQQSTGHPQTFGQGTKVEIKR
B10: 2B.1.38 (antibody, human IgG1, kappa, V domains shown)
VH: EVQLVESGGGLVQPGGSLRLSCAASGFTFTSTGISWVRQAPGKGLEWVGRFWAYDGSTNYADSVKGRFTISADTSKNTAYLQMNSLRAEDTAVYYCARTYGIYDLYVDYTEYVMDYWGQGTLVTVSS
VL: DIQMTQSPSSLSASVGDRVTITCRASQDVDTSLAWYKQKPGKAPKLLIYSASFLYSGVPSRFSGSGSGTDFTLTISSLQPEDFATYYCQQSTGHPQTFGQGTKVEIKR
B11: 2B.1.25 (antibody, human IgG1, kappa, V domains shown)
VH: EVQLVESGGGLVQPGGSLRLSCAASGFTFTSTGISWVRQAPGKGLEWVGRWHPWMGSTNYADSVKGRFTISADTSKNTAYLQMNSLRAEDTAVYYCARTYGIYDLYVDYTEYVMDYWGQGTLVTVSS
VL: DIQMTQSPSSLSASVGDRVTITCRASQDVDTSLAWYKQKPGKAPKLLIYSASFLYSGVPSRFSGSGSGTDFTLTISSLQPEDFATYYCQQSTGHPQTFGQGTKVEIKR
B12: 2B.1.50 (antibody, human IgG1, kappa, V domains shown)
VH: EVQLVESGGGLVQPGGSLRLSCAASGFTFTSTGISWVRQAPGKGLEWVGRLNFYSGSTNYADSVKGRFTISADTSKNTAYLQMNSLRAEDTAVYYCARTYGIYDLYVDYTEYVMDYWGQGTLVTVSS
VL: DIQMTQSPSSLSASVGDRVTITCRASQDVDTSLAWYKQKPGKAPKLLIYSASFLYSGVPSRFSGSGSGTDFTLTISSLQPEDFATYYCQQSTGHPQTFGQGTKVEIKR
B13: 2B.1.44 (antibody, human IgG1, kappa, V domains shown)
VH: EVQLVESGGGLVQPGGSLRLSCAASGFTFTSTGISWVRQAPGKGLEWVGRWWSWGGSTNYADSVKGRFTISADTSKNTAYLQMNSLRAEDTAVYYCARTYGIYDLYVDYTEYVMDYWGQGTLVTVSS
VL: DIQMTQSPSSLSASVGDRVTITCRASQDVDTSLAWYKQKPGKAPKLLIYSASFLYSGVPSRFSGSGSGTDFTLTISSLQPEDFATYYCQQSTGHPQTFGQGTKVEIKR
B14: 2B.1.65 (antibody, human IgG1, kappa, V domains shown)
VH: EVQLVESGGGLVQPGGSLRLSCAASGFTFTSTGISWVRQAPGKGLEWVGRYNAYTGSTNYADSVKGRFTISADTSKNTAYLQMNSLRAEDTAVYYCARTYGIYDLYVDYTEYVMDYWGQGTLVTVSS
VL: DIQMTQSPSSLSASVGDRVTITCRASQDVDTSLAWYKQKPGKAPKLLIYSASFLYSGVPSRFSGSGSGTDFTLTISSLQPEDFATYYCQQSTGHPQTFGQGTKVEIKR
B15: 2B.1.30 (antibody, human IgG1, kappa, V domains shown)
VH: EVQLVESGGGLVQPGGSLRLSCAASGFTFTSTGISWVRQAPGKGLEWVGRVSFFSGSTNYADSVKGRFTISADTSKNTAYLQMNSLRAEDTAVYYCARTYGIYDLYVDYTEYVMDYWGQGTLVTVSS
VL: DIQMTQSPSSLSASVGDRVTITCRASQDVDTSLAWYKQKPGKAPKLLIYSASFLYSGVPSRFSGSGSGTDFTLTISSLQPEDFATYYCQQSTGHPQTFGQGTKVEIKR
B16: 2B.1.52 (antibody, human IgG1, kappa, V domains shown)
VH: EVQLVESGGGLVQPGGSLRLSCAASGFTFTSTGISWVRQAPGKGLEWVGRFSLGDGSTNYADSVKGRFTISADTSKNTAYLQMNSLRAEDTAVYYCARTYGIYDLYVDYTEYVMDYWGQGTLVTVSS
VL: DIQMTQSPSSLSASVGDRVTITCRASQDVDTSLAWYKQKPGKAPKLLIYSASFLYSGVPSRFSGSGSGTDFTLTISSLQPEDFATYYCQQSTGHPQTFGQGTKVEIKR
B17: 2B.1.94 (antibody, human IgG1, kappa, V domains shown)
VH: EVQLVESGGGLVQPGGSLRLSCAASGFTFTSTGISWVRQAPGKGLEWVGRLVFFSGSTNYADSVKGRFTISADTSKNTAYLQMNSLRAEDTAVYYCARTYGIYDLYVDYTEYVMDYWGQGTLVTVSS
VL: DIQMTQSPSSLSASVGDRVTITCRASQDVDTSLAWYKQKPGKAPKLLIYSASFLYSGVPSRFSGSGSGTDFTLTISSLQPEDFATYYCQQSTGHPQTFGQGTKVEIKR
B18: 2B.1.78 (antibody, human IgG1, kappa, V domains shown)
VH: EVQLVESGGGLVQPGGSLRLSCAASGFTFTSTGISWVRQAPGKGLEWVGRLSFYSGSTNYADSVKGRFTISADTSKNTAYLQMNSLRAEDTAVYYCARTYGIYDLYVDYTEYVMDYWGQGTLVTVSS
VL: DIQMTQSPSSLSASVGDRVTITCRASQDVDTSLAWYKQKPGKAPKLLIYSASFLYSGVPSRFSGSGSGTDFTLTISSLQPEDFATYYCQQSTGHPQTFGQGTKVEIKR
B19: 2B.1.80 (antibody, human IgG1, kappa, V domains shown)
VH: EVQLVESGGGLVQPGGSLRLSCAASGFTFTSTGISWVRQAPGKGLEWVGRYWAFSGSTNYADSVKGRFTISADTSKNTAYLQMNSLRAEDTAVYYCARTYGIYDLYVDYTEYVMDYWGQGTLVTVSS
VL: DIQMTQSPSSLSASVGDRVTITCRASQDVDTSLAWYKQKPGKAPKLLIYSASFLYSGVPSRFSGSGSGTDFTLTISSLQPEDFATYYCQQSTGHPQTFGQGTKVEIKR
B20: 2B.1.81 (antibody, human IgG1, kappa, V domains shown)
VH: EVQLVESGGGLVQPGGSLRLSCAASGFTFTSTGISWVRQAPGKGLEWVGRVNNFYGSTNYADSVKGRFTISADTSKNTAYLQMNSLRAEDTAVYYCARTYGIYDLYVDYTEYVMDYWGQGTLVTVSS
VL: DIQMTQSPSSLSASVGDRVTITCRASQDVDTSLAWYKQKPGKAPKLLIYSASFLYSGVPSRFSGSGSGTDFTLTISSLQPEDFATYYCQQSTGHPQTFGQGTKVEIKR
B21: 2B.1.28 (antibody, human IgG1, kappa, V domains shown)
VH: EVQLVESGGGLVQPGGSLRLSCAASGFTFTSTGISWVRQAPGKGLEWVGRFWAWSGSTNYADSVKGRFTISADTSKNTAYLQMNSLRAEDTAVYYCARTYGIYDLYVDYTEYVMDYWGQGTLVTVSS
VL: DIQMTQSPSSLSASVGDRVTITCRASQDVDTSLAWYKQKPGKAPKLLIYSASFLYSGVPSRFSGSGSGTDFTLTISSLQPEDFATYYCQQSTGHPQTFGQGTKVEIKR

Sequence of FGFR2-IIIb (human) (P21802 other isoform, or with tags, fused parts or gaps limits assumed): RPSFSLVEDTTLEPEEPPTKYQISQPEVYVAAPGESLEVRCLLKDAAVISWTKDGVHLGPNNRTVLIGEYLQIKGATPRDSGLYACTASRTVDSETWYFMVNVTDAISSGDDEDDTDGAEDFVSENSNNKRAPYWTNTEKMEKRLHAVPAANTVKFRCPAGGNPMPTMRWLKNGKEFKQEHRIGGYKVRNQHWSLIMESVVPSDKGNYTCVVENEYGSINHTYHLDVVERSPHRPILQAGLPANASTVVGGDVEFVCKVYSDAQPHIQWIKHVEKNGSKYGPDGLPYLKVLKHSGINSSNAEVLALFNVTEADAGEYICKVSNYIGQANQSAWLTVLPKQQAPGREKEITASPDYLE

The test has as its target FGFR2-IIIb (human) (UniProt P21802). As to the kind of experiment: SPR (Biacore T100), IgG captured by anti-human Fc, FGFR flowed.
As for B1, the Kd is 1.4 nM.

The molecule B2 displayed a Kd of 9.4 nM.

B3 returned a Kd of 1.6 nM.

Molecule B4 registered a Kd of 3.5 nM.

B5 showed a Kd of 15 nM.

Consider B6, for which the Kd turned out to be 5.9 nM.

For the molecule B7, the Kd amounted to 5.1 nM.

With B8, the Kd was 1.6 nM.

B9: the Kd was determined as 4.9 nM.

In the case of B10, the Kd worked out at 1.1 nM.

B11 gave a Kd of 2.3 nM.

As for B12, the Kd came to 2 nM.

As to B13, the Kd worked out at 3.6 nM.

In turn, B14 had a Kd of 2.7 nM.

The molecule B15 came in with a Kd of 4.1 nM.

In turn, B16 came in with a Kd of 3.9 nM.

Regarding B17, the dissociation constant (Kd) is 3.1 nM.

Molecule B18 returned a Kd of 3.2 nM.

With B19, the Kd turned out to be 17 nM.

B20: the Kd stood at 2.1 nM.

For the molecule B21, the Kd stood at 1.8 nM.
